Changes are numbered by the printed parent chain.
Experiments:
[1] = target: C3b (component obtained after hydrolysis of complement component 3, C3) (UniProt P01024); assay: BLI (Octet RED96), GFP tagged Nanofitin captured on anti-GFP Nanofitin biosensor, C3b in solution, 1:1 fit
[2] = target: C3b (component obtained after hydrolysis of complement component 3, C3) (UniProt P01024); assay: ELISA screen of optimized Nf1 variants
[3] = target: C3b (component obtained after hydrolysis of complement component 3, C3) (UniProt P01024); assay: biolayer interferometry
[4] = target: C3b (component obtained after hydrolysis of complement component 3, C3) (UniProt P01024); assay: biolayer interferometry; B10 by full chemical synthesis
[5] = target: C3b (component obtained after hydrolysis of complement component 3, C3) (UniProt P01024); assay: biolayer interferometry; B10 recombinant from E. coli; untagged B10, recombinant from E. coli

B1: B10 (SEQ ID NO: 25), GFP tagged anti-C3 Nanofitin (designed binder, not shown: large carriers)
chain: MVKVKFDATGEEKEVDTSKISAVYRTGKDVLFSYDDNGKIGWGYVSEKDAPKELLDLLARAERE
[1]
  Kd: 7.31 nM
  koff: 0.000433 s⁻¹
  kon: 59200 M⁻¹ s⁻¹
[2]
  OD 450 nm: > 4 OD 450 nm

B2: B10 Nanofitin with N-terminal 48 kDa protein (designed binder, not shown: small tags and cut ends)
chain: B1 chain
[3]
  Kd: 6.7 nM

B3: B10 Nanofitin with N-terminal peptide (10-mers) tag and C-terminal 30 kDa protein (designed binder, not shown: large carriers; small tags and cut ends)
chain: B1 chain
[3]
  Kd: 7.3 nM

B4: B10 Nanofitin without N- or C-terminal tag (designed binder)
chain: B1 chain
[4]
  Kd: 18 nM
[5]
  Kd: 18.5 nM

B5: H03 (SEQ ID NO: 26), GFP tagged anti-C3 Nanofitin (designed binder, not shown: large carriers)
chain: B1 chain with D7A, S21A, A22N, T26V
[1]
  Kd: 2.89 nM
  koff: 0.000188 s⁻¹
  kon: 65200 M⁻¹ s⁻¹
[2]
  OD 450 nm: > 4 OD 450 nm

B6: B10 Nanofitin with N-terminal peptide (10-mers) tag (designed binder, not shown: small tags and cut ends)
chain: B1 chain
[3]
  Kd: 8.2 nM

B7: B10 Nanofitin with N-terminal peptide (10-mers) tag and C-terminal peptide (15-mers) tag (designed binder, not shown: small tags and cut ends)
chain: B1 chain
[3]
  Kd: 2.5 nM

B8: B10 Nanofitin with N-terminal peptide (10-mers) tag and C-terminal Nanofitin (designed binder, not shown: small tags and cut ends)
chain: B1 chain
[3]
  Kd: 11.5 nM
